In the supplement of paper PMC5998384:

Columns and labels:
HeLa Kyoto [1] = test: solubility in G1/S (NP-40 vs SDS abundance) (log2 ratio); higher = more soluble; settings: cell cycle stage: G1/S
HeLa Kyoto [2] = test: thermal stability score vs G1/S (z-score of summed log2 fold changes over temperatures); higher = more thermally stable than in G1/S
HeLa Kyoto [3] = test: solubility change mitosis vs G1/S (difference of NP-40 vs SDS log2 ratios) (log2 ratio difference); higher = more soluble in mitosis
HeLa Kyoto [4] = test: melting temperature (median over replicates), in situ; higher = more thermally stable
[5] = cell cycle stage: early G1 (4.5 h after nocodazole release)
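For melting temperature (median over replicates), in situ in this document: HeLa Kyoto cells synchronized by double thymidine or nocodazole block, proteins quantified by TMT10plex mass spectrometry, three independent biological replicates.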
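For solubility change mitosis vs G1/S (difference of NP-40 vs SDS log2 ratios) in this document: synchronized HeLa Kyoto cells (double thymidine block for G1/S, nocodazole release for mitosis), protein amounts in NP-40 versus SDS lysates quantified by mass spectrometry, three biological replicates.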
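For solubility in G1/S (NP-40 vs SDS abundance) in this document: HeLa Kyoto cells arrested at G1/S by double thymidine block, proteins quantified by TMT10plex mass spectrometry in mild NP-40 versus SDS extracts, three biological replicates.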
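For thermal stability score vs G1/S (z-score of summed log2 fold changes over temperatures) in this document: synchronized HeLa Kyoto cells, proteins quantified by TMT10plex mass spectrometry, three biological replicates, mitosis taken 0.5 h after nocodazole release, G1/S directly after double thymidine block.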

Sequence: MWLPLVLLLAVLLLAVLCKVYLGLFSGSSPNPFSEDVKRPPAPLVTDKEARKKVLKQAFSANQVPEKLDVVVIGSGFGGLAAAAILAKAGKRVLVLEQHTKAGGCCHTFGKNGLEFDTGIHYIGRMEEGSIGRFILDQITEGQLDWAPLSSPFDIMVLEGPNGRKEYPMYSGEKAYIQGLKEKFPQEEAIIDKYIKLVKVVSSGAPHAILLKFLPLPVVQLLDRCGLLTRFSPFLQASTQSLAEVLQQLGASSELQAVLSYIFPTYGVTPNHSAFSMHALLVNHYMKGGFYPRGGSSEIAFHTIPVIQRAGGAVLTKATVQSVLLDSAGKACGVSVKKGHELVNIYCPIVVSNAGLFNTYEHLLPGNARCLPGVKQQLGTVRPGLGMTSVFICLRGTKEDLHLPSTNYYVYYDTDMDQAMERYVSMPREEAAEHIPLLFFAFPSAKDPTWEDRFPGRSTMIMLIPTAYEWFEEWQAELKGKRGSDYETFKNSFVEASMSVVLKLFPQLEGKVESVTAGSPLTNQFYLAAPRGACYGADHDLGRLHPCVMASLRAQSPIPNLYLTGQDIFTCGLVGALQGALLCSSAILKRNLYSDLKNLDSRIRAQKKKN [RETSAT]
- solubility in G1/S (log2) (HeLa Kyoto [1]): 0.0503
- thermal stability score (HeLa Kyoto [2]; [5]): 2.89
- thermal stability score (HeLa Kyoto [2]; cell cycle stage: mitosis): 3.75
- solubility change mitosis (log2) (HeLa Kyoto [3]): -0.0973
- melting temperature (HeLa Kyoto [4]; cell cycle stage: G1/S): 52.1 °C
- melting temperature (HeLa Kyoto [4]; cell cycle stage: mitosis): 52.2 °C

Sequence: MWLWEDQGGLLGPFSFLLLVLLLVTRSPVNACLLTGSLFVLLRVFSFEPVPSCRALQVLKPRDRISAIAHRGGSHDAPENTLAAIRQAAKNGATGVELDIEFTSDGIPVLMHDNTVDRTTDGTGRLCDLTFEQIRKLNPAANHRLRNDFPDEKIPTLREAVAECLNHNLTIFFDVKGHAHKATEALKKMYMEFPQLYNNSVVCSFLPEVIYKMRQTDRDVITALTHRPWSLSHTGDGKPRYDTFWKHFIFVMMDILLDWSMHNILWYLCGISAFLMQKDFVSPAYLKKWSAKGIQVVGWTVNTFDEKSYYESHLGSSYITDSMVEDCEPHF [GDE1]
- solubility in G1/S (log2) (HeLa Kyoto [1]): 0.138
- thermal stability score (HeLa Kyoto [2]; [5]): 0.685
- thermal stability score (HeLa Kyoto [2]; cell cycle stage: mitosis): -1.42
- solubility change mitosis (log2) (HeLa Kyoto [3]): -0.1
- melting temperature (HeLa Kyoto [4]; cell cycle stage: G1/S): 51.5 °C
- melting temperature (HeLa Kyoto [4]; cell cycle stage: mitosis): 55.9 °C

Sequence: MWPGNAWRAALFWVPRGRRAQSALAQLRGILEGELEGIRGAGTWKSERVITSRQGPHIRVDGVSGGILNFCANNYLGLSSHPEVIQAGLQALEEFGAGLSSVRFICGTQSIHKNLEAKIARFHQREDAILYPSCYDANAGLFEALLTPEDAVLSDELNHASIIDGIRLCKAHKYRYRHLDMADLEAKLQEAQKHRLRLVATDGAFSMDGDIAPLQEICCLASRYGALVFMDECHATGFLGPTGRGTDELLGVMDQVTIINSTLGKALGGASGGYTTGPGPLVSLLRQRARPYLFSNSLPPAVVGCASKALDLLMGSNTIVQSMAAKTQRFRSKMEAAGFTISGASHPICPVMLGDARLASRMADDMLKRGIFVIGFSYPVVPKGKARIRVQISAVHSEEDIDRCVEAFVEVGRLHGALP [GCAT]
- solubility in G1/S (log2) (HeLa Kyoto [1]): 0.194
- thermal stability score (HeLa Kyoto [2]; [5]): -0.218
- thermal stability score (HeLa Kyoto [2]; cell cycle stage: mitosis): -1.56
- solubility change mitosis (log2) (HeLa Kyoto [3]): -0.0435
- melting temperature (HeLa Kyoto [4]; cell cycle stage: G1/S): 53.3 °C
- melting temperature (HeLa Kyoto [4]; cell cycle stage: mitosis): 53.3 °C

Sequence: MWPQPRLPPRPAMSEETRQSKLAAAKKKLREYQQRNSPGVPTGAKKKKKIKNGSNPETTTSGGCHSPEDTPKDNAATLQPSDDTVLPGGVPSPGASLTSMAASQNHDADNVPNLMDETKTFSSTESLRQLSQQLNGLVCESATCVNGEGPASSANLKDLESRYQQLAVALDSSYVTNKQLNITIEKLKQQNQEITDQLEEEKKECHQKQGALREQLQVHIQTIGILVSEKAELQTALAHTQHAARQKEGESEDLASRLQYSRRRVGELERALSAVSTQQKKADRYNKELTKERDALRLELYKNTQSNEDLKQEKSELEEKLRVLVTEKAGMQLNLEELQKKLEMTELLLQQFSSRCEAPDANQQLQQAMEERAQLEAHLGQVMESVRQLQMERDKYAENLKGESAMWRQRMQQMSEQVHTLREEKECSMSRVQELETSLAELRNQMAEPPPPEPPAGPSEVEQQLQAEAEHLRKELEGLAGQLQAQVQDNEGLSRLNREQEERLLELERAAELWGEQAEARRQILETMQNDRTTISRALSQNRELKEQLAELQSGFVKLTNENMEITSALQSEQHVKRELGKKLGELQEKLSELKETVELKSQEAQSLQQQRDQYLGHLQQYVAAYQQLTSEKEVLHNQLLLQTQLVDQLQQQEAQGKAVAEMARQELQETQERLEAATQQNQQLRAQLSLMAHPGEGDGLDREEEEDEEEEEEEAVAVPQPMPSIPEDLESREAMVAFFNSAVASAEEEQARLRGQLKEQRVRCRRLAHLLASAQKEPEAAAPAPGTGGDSVCGETHRALQGAMEKLQSRFMELMQEKADLKERVEELEHRCIQLSGETDTIGEYIALYQSQRAVLKERHREKEEYISRLAQDKEEMKVKLLELQELVLRLVGDRNEWHGRFLAAAQNPADEPTSGAPAPQELGAANQQGDLCEVSLAGSVEPAQGEAREGSPRDNPTAQQIMQLLREMQNPRERPGLGSNPCIPFFYRADENDEVKITVI [GOLGA2]
- solubility in G1/S (log2) (HeLa Kyoto [1]): 0.522
- thermal stability score (HeLa Kyoto [2]; [5]): 1.74
- thermal stability score (HeLa Kyoto [2]; cell cycle stage: mitosis): 3.29
- solubility change mitosis (log2) (HeLa Kyoto [3]): 0.0669
- melting temperature (HeLa Kyoto [4]; cell cycle stage: G1/S): 48.9 °C
- melting temperature (HeLa Kyoto [4]; cell cycle stage: mitosis): 48.9 °C
